Data on 5 molecules can be found in article doi:10.1101/2022.08.20.504624 (bioRxiv, 2022).

To fix the notation:
B1: Chlamydomonas IFT74_(128-C) (domain or fragment, Chlamydomonas reinhardtii, UniProt Q6RCE1 128-641, looked up)
chain: GVGRQVLDKNYFMNELRQKRMEIAQVTSNMKSDLEALERKQAQYNSMDKRASDLSKEVKILQEALADYNTVLDKVGSQAPVYVIQQEFAALKDRNEQQRKRVDEVLTERLNLESKAKQAESKMSEIQASMDQRLNSMPPSQRNEYTTLVAEQQQLQADSKRFEEVLDELDKALQASEGELARNPFKQRSLQLQEQIRALTEKKYELTEEERQSKRSPEELRADLMAKIKRDNTEVEQMTQQIRELQDQIKKMEERVKSLGGATSGAAAAEEKANREKFEELLAKERDLNNFMDGFPSRKAAKMQEKQQKEDGIVGVLEKMVKMQGIIGSNLPSQKKYKEMQDELEYKKMQLENTQTTQERLKEELTMRRTELEKIDTLEDKIKLELTQLAERQEAMEKEMGEFGSVEDIQRKANAARERMEGLRSVLLKRKDLLRSIVAERGLKFQAKRAQLQDHNLQVQLEKMEAKLKNLSAGVFEMDEFIKAKESETNYRQLASNIAALVDDLNVHVKKAVV
B2: Chlamydomonas IFT46_(188-319) (domain or fragment, Chlamydomonas reinhardtii, UniProt A2T2X4 188-319, looked up)
chain: QLRQLSKEAPGAKADMVGRLEHTDENKAKKIQQWIASINDIHKAKPAATVNYSKRMPEIEALMQEWPPEVETFLKTMHMPSGDVELDIKTYARLVCTLLDIPVYDDPVESLHVLFTLYLEFKNNPIFRQHME
B3: Chlamydomonas IFT25_(1-136) (domain or fragment, Chlamydomonas reinhardtii, UniProt B8LIX8 1-136, looked up)
chain: MKDYAREENGGLVVMASCSDERFPPENMLDGKDNTFWVTTGMFPQEFVLRLESCIRVSKITTLSLNVRKLAVEKCDQDKPDQFEKVFEVELANRGDRLQTEVHQVNIRAKYLKFILLQGHGEFATVNRVSVVGGDD
B4: Chlamydomonas IFT27 (natural protein, Chlamydomonas reinhardtii)
chain: MVKKEVKPIDITATLRCKVAVVGEATVGKSALISMFTSKGSKFLKDYAMTSGVEVVVAPVTIPDTTVSVELFLLDTAGSDLYKEQISQYWNGVYYAILVFDVSSMESFESCKAWFELLKSARPDRERPLRAVLVANKTDLPPQRHQVRLDMAQDWATTNTLDFFDVSANPPGKDADAPFLSIATTFYRNYEDKVAAFQDACRNY
B5: GST-tagged CrIFT57_(1-234) (domain or fragment, Chlamydomonas reinhardtii, UniProt Q2XQY7 1-234, looked up)
chain: MSSKRGGRSSLAKAPEEAVNGEAFAPEASPPPPGDDGDAGGEDGGAPAPPPPPATKGGPVAVGRSLEIQTTPDVCMEMLADKLKLLNYEADFCRKKKPYRKPLSRLYFAVPLANSSEQFFYFTSLATWLLGLAGVELPAPKEFDDPNLTCQNILGAVKKLGFAPPSYHPTKLTVGNGKEVVGVLDGLVDFVLERRHHKYSRPAYGNDGQPEEGVQLDDEAEAAAMEGADELAMP

For one assay, the target named is T1, Chlamydomonas IFT81 (Chlamydomonas reinhardtii, UniProt Q68RJ5 1-683).
T1 sequence (looked up): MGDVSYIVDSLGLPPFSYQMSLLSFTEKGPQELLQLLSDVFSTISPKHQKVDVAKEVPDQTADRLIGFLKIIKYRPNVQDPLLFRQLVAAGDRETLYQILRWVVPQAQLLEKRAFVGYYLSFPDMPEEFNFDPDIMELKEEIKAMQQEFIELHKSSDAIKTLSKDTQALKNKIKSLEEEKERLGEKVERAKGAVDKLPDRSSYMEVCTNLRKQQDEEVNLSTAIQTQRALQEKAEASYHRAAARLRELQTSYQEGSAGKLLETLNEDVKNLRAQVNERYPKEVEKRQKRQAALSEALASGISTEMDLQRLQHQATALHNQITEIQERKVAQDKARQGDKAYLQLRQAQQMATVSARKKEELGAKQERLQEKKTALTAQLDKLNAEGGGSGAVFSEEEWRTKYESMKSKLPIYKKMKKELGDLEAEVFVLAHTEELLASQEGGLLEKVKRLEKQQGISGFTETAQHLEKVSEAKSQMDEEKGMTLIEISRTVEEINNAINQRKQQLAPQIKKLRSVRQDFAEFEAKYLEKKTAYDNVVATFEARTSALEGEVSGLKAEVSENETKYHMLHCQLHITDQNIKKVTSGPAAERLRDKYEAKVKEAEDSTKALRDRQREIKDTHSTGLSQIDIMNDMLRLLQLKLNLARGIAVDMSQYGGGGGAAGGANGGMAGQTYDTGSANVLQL
As to the kind of experiment: cross-linking.

Assay [1] addresses B1. As to the kind of experiment: cross-linking.
Assay [2] deals with T2, Chlamydomonas IFT81/74_(128-C) heterodimer within the IFT-B1 nonamer (Chlamydomonas reinhardtii, UniProt Q68RJ5 1-683; Q6RCE1 128-641).
T2 sequence (looked up) 1: T1 sequence (looked up)
T2 sequence (looked up) 2: B1 chain
As to the kind of experiment: cross-linking.

A further assay addresses T3, CrIFT172_(1-968) (Chlamydomonas reinhardtii, UniProt Q5DM57 1-968).
T3 sequence (looked up): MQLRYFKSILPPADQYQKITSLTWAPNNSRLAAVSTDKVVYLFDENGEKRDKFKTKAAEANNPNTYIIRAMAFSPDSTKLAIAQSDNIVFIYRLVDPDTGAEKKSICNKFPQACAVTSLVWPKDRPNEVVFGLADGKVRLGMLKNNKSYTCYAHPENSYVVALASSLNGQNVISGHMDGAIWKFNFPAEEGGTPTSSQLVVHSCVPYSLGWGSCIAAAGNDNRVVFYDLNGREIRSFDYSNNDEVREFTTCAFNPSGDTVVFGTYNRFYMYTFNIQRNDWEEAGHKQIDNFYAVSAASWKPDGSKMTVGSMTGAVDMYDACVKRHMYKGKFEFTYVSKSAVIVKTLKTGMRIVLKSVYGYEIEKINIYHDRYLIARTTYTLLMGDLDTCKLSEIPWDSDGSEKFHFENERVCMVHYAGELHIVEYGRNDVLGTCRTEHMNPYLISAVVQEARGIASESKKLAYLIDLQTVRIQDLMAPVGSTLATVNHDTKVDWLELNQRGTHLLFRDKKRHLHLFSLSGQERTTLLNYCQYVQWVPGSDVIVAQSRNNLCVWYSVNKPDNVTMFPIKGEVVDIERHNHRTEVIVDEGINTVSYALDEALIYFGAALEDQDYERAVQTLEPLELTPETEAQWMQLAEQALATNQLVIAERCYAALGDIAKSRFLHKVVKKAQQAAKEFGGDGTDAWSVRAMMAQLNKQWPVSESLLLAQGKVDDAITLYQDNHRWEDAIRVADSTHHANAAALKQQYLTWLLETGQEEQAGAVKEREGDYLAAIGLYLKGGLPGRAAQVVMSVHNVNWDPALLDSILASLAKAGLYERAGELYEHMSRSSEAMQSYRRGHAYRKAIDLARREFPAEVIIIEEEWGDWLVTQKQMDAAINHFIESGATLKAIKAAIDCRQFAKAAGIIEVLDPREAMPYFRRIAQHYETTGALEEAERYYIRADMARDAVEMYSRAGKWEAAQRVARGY
The experiment in a line: pull-down.

Consider B1, for which the binding result with Chlamydomonas IFT81 is reported as “binds”.

Consider B2, for which the binding result (with Chlamydomonas IFT81; in assay [1]) was “binds” each time.

For the molecule B3, the binding result in assay [2] was “binds”.

In the case of B4, the binding result in assay [2] is listed as “binds”.

B5: the binding result with CrIFT172_(1-968) is given as “binds”.
